The target in assay [1] is T1, human CD64 receptor expressed by Jurkat cells (Jurkat-CD64) (human, UniProt P12314 16-374). Briefly: cell-based or functional assay.
The next assay concerns the target T2, CD32b (UniProt P31994 43-310, limits assumed).
T2 construct: probably on transfected cells as for CD32a
T2 sequence (looked up): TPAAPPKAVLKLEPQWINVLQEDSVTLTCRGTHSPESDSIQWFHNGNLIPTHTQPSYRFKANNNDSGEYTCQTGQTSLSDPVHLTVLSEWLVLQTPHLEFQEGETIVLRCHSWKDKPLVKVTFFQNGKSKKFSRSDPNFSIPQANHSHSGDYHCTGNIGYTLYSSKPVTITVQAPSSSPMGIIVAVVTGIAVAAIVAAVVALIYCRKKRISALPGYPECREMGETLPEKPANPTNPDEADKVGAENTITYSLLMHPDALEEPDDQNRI
Briefly: competition assay, protocol and competitor for CD32b not described.

The target in assay [2] is T3, HisTag hCD16aV receptor (R&D System) (human, UniProt P08637 17-208).
T3 construct: Captured on anti-Penta-HIS biosensors; also called human FcγRIIIa-V; FcγRIIIa (CD16a); not shown: HisTag
Briefly: BLI (Octet), HisTag hCD16aV on anti-Penta-HIS biosensors, 1/1 model; SD 18.1. The protocol:
(§1) The molecules were tested at concentrations of 1000, 500, 250, 125, 62.5, 31, […] and 0 nM in kinetic buffer.
(§2) The association and dissociation curves (first 5 s) are used to calculate the kinetic constants of association (kon) and dissociation (koff) using a 1/1 association model. KD (nM) is then calculated […].
(In general: BLI is a label-free optical method that tracks binding on a fibre tip over time.)

In assay [3] the target is T4, human CD32aH receptor on transfected HEK cells (HEK-CD32) (human, UniProt P12318 34-317).
T4 construct: whole, on cells; also called hCD32aH; FcγRIIa (CD32a)
T4 sequence (looked up): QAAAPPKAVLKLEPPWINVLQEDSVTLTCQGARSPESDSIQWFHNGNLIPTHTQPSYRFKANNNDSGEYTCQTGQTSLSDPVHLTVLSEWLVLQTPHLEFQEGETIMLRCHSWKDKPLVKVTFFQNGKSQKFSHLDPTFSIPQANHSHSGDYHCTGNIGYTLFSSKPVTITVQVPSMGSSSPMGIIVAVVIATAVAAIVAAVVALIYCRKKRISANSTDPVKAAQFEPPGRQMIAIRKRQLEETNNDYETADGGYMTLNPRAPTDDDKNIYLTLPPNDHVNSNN
Briefly: flow cytometry competition on HEK-CD32 cells, displacement of Rituxan-A488 (30 µg/ml). On the procedure: (§3) The cells are then washed by adding 100 μl of PBS at pH 6 and centrifuged at 1700 rpm for 3 minutes at 4° C. The supernatant is then removed and 300 μl of cold PBS is added at pH 6.
A general note: Flow cytometry measures light scatter and fluorescence of single cells or particles in a stream.

The target in assay [4] is T5, human CD32aR receptor on transfected HEK cells (HEK-CD32) (human, UniProt P12318 34-317).
T5 construct: whole, on cells; also called hCD32aR; FcγRIIa (CD32a)
T5 sequence (looked up): T4 sequence (looked up) with H134R
The assay is described as above. On the procedure:
as §3

Assay [5] deals with T1, human CD64 receptor expressed by Jurkat …. Briefly: flow cytometry competition on Jurkat-CD64 cells, displacement of Rituxan-A488 (25 µg/ml).
Assay [6] addresses T6, human CD16aH receptor on transfected Jurkat cells (Jurkat-CD16aH) (human, UniProt P08637 17-254).
T6 construct: whole, on cells; also called hCD16aH; CD16a-F
The assay is described as follows: flow cytometry competition on Jurkat-CD16aH cells, displacement of mAb 3G8-PE (0.5 µg/ml). On the procedure: The Jurkat-CD16aH cells are seeded in a 96-well plate (V bottom) at a concentration of 2.10⁵ cells per well.
The cells are then washed by adding […] of PBS at pH 6 and centrifuged at 1700 rpm for 3 minutes at 4° C. The supernatant is then removed and 300 μl of cold PBS is added at pH 6.

Assay [7] concerns the target T7, human FcRn receptor expressed by Jurkat cells (Jurkat-FcRn) (human, UniProt P55899 24-365; P61769 21-119).
T7 construct: whole, on cells; also called hFcRn
Briefly: flow cytometry competition on Jurkat-FcRn cells, displacement of Rituxan-A488 (25 µg/ml), pH 6. The protocol:
The Jurkat-FcRn cells are seeded in a 96-well plate (V bottom) at a concentration of 2.10⁵ cells per well.
as §3

Assay [8] concerns the target T3, HisTag hCD16aV receptor (R&D System). Briefly: BLI (Octet), HisTag hCD16aV on anti-Penta-HIS biosensors, 1/1 model; SD 10.7. The protocol: as §1, §2
The target of assay [9] is complement proteins, in particular C1q (complement of the young rabbit serum used in the CDC test) (rabbit). The assay is described as follows: cell-based or functional assay.
Assay [10] addresses T3, HisTag hCD16aV receptor (R&D System). The assay is described as follows: BLI (Octet), HisTag hCD16aV on anti-Penta-HIS biosensors, 1/1 model; SD 14.1.
For assay [11], the target named is T8, HisTag hCD32aH receptor (PX therapeutics) (human, UniProt P12318 34-217, limits assumed).
T8 construct: Captured on anti-Penta-HIS biosensors; also called FcγRIIa (CD32a); not shown: HisTag
T8 sequence (looked up): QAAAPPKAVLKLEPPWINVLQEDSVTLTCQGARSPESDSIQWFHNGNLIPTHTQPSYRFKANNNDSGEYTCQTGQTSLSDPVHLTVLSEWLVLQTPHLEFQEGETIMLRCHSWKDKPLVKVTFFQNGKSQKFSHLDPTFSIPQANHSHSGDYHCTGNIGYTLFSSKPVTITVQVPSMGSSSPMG
Briefly: BLI (Octet), HisTag hCD32aH on anti-Penta-HIS biosensors, 1/1 model; SD 29.7.

Assay [12] addresses biotinylated human FcRn receptor (hFcRn), immobilized on Streptavidin Biosensors (human, UniProt P55899 24-297; P61769 21-119, limits assumed, biotinylated (site not stated)). The assay is described as follows: BLI (Octet), biotinylated hFcRn on streptavidin biosensors, pH 6, 1/1 model; SD 0. On the procedure: The association and dissociation curves (first 10 s) are used to calculate the kinetic constants of association (kon) and dissociation (koff) using a 1/1 association model. KD (nM) is then calculated […].

Assay [13] has as its target T3, HisTag hCD16aV receptor (R&D System). The assay is described as follows: BLI (Octet), HisTag hCD16aV on anti-Penta-HIS biosensors, 1/1 model; SD 7.7. On the procedure: as §1, §2

Residue numbers refer to the chain shown, from its start. Numbers in names are those of the source.

T1 sequence (P12314 16-374): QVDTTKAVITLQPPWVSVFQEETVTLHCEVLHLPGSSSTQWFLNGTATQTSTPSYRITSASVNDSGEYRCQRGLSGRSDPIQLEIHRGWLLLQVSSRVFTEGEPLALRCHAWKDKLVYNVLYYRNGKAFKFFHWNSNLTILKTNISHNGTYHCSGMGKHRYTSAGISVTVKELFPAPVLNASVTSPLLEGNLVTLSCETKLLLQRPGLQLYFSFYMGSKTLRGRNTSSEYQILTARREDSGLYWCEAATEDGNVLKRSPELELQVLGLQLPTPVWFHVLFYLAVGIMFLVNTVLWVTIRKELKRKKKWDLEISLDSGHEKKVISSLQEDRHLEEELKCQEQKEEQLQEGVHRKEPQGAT
T3 sequence (P08637 17-208 F176V limits assumed): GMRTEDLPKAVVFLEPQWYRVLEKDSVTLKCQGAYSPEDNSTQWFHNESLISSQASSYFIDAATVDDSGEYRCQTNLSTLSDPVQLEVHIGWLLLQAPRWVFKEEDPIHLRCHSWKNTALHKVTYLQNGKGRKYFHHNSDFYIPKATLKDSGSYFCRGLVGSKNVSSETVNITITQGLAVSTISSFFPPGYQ
T7 sequence (P55899 24-365, chain 1 of 2): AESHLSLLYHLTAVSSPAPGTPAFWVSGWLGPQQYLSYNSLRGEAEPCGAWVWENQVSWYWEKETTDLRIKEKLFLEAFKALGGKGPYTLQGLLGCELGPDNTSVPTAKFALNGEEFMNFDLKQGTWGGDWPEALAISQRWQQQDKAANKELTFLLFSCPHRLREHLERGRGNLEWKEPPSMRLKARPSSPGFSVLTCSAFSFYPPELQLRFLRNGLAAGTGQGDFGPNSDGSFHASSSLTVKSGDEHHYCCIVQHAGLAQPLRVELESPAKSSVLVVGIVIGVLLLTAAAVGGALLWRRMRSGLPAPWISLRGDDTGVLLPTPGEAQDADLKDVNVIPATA
T7 sequence (P61769 21-119, chain 2 of 2): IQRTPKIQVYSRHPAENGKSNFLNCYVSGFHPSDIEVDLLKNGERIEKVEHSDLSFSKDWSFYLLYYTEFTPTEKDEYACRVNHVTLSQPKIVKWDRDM
T6 sequence (P08637 17-254): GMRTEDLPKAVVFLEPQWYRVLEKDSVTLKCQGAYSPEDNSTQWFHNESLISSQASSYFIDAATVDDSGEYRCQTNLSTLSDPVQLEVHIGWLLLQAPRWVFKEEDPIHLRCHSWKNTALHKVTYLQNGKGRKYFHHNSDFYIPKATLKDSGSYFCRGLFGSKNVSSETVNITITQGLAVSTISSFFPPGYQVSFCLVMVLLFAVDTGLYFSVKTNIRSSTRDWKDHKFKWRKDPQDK
Chain of biotinylated human FcRn receptor (hFcRn), immobilized on Streptavidin Biosensors (P55899 24-297 limits assumed, chain 1 of 2): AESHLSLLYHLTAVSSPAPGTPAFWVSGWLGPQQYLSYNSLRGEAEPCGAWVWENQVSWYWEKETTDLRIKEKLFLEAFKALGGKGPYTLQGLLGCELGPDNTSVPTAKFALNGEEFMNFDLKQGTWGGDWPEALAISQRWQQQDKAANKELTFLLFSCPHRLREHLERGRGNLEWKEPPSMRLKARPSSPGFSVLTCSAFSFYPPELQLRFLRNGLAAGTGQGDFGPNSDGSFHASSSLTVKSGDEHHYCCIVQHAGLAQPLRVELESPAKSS
Chain of biotinylated human FcRn receptor (hFcRn), immobilized on Streptavidin Biosensors (P61769 21-119 limits assumed, chain 2 of 2): as the sequence (P61769 21-119, chain 2 of 2) above

B1: A3A-184AY_CHO (K334N/P352S/A378V/V397M/N434Y), Fc variant produced in CHO cells (other)
chain: DKTHTCPPCPAPELLGGPSVFLFPPKPKDTLMISRTPEVTCVVVDVSHEDPEVKFNWYVDGVEVHNAKTKPREEQYNSTYRVVSVLTVLHQDWLNGKEYKCKVSNKALPAPIENTISKAKGQPREPQVYTLSPSRDELTKNQVSLTCLVKGFYPSDIVVEWESNGQPENNYKTTPPMLDSDGSFFLYSKLTVDKSRWQQGNVFSCSVMHEALHYHYTQKSLSLSPGK
notes: also called Fc A3A-184AY CHO
A word on the IC50: it is the concentration that gives 50% inhibition. Read a low IC50 as higher potency. As usually defined, the Kd is a measure of binding affinity in units of concentration. Higher therefore signals a looser complex. Turning to B1, in [1], the “Inhibition of the secretion of IL-2 of the Jurkat cells transfected with CD64 (IC 25%, nM)” value (from here on “Inhibition of the secretion … (IC 25%, nM)”) came to 448 nM. Besides, the “Inhibition of the secretion of IL-2 of the Jurkat cells transfected with CD64 (IC 50%, nM)” value (shortened to “Inhibition of the secretion … (IC 50%, nM)”) in assay [1] was 600 nM. Moreover, the IC50 with CD32b was determined as 57 nM; in assay [3] it was 135 nM; in assay [4], 176 nM; in assay [5] it was 84 nM; in assay [6], 262 nM; in assay [7] it was 13 nM. Also, the affinity in assay [2], expressed as Kd, was 80.3 nM.

B2: Fc MST-HN fragment containing the mutations M252Y/S254T/T256E/H433K/N434F, produced in HEK-293 cells (other, UniProt P01857-1 104-330, looked up, name in EU numbering)
chain: B1 chain with M32Y, S34T, T36E, N114K, S132P, V158A, M177V, H213K, Y214F
As to B2, the “Inhibition of the secretion … (IC 25%, nM)” value in [1] stood at 1460 nM. Besides, the “Inhibition of the secretion … (IC 50%, nM)” value in [1] is less than 1950 nM. The IC50 in assay [5] came out at 494 nM; in [7] it was 14 nM.

B3: A3A-184AY_TGg, Fc variant A3A-184AY produced in the transgenic goat (other)
chain: B1 chain
For the molecule B3, the IC50 is 59 nM with CD32b, 170 nM in [3], 87 nM in assay [5] and 12 nM in assay [7]. In addition, in [8], the Kd was 51.2 nM.

B4: Fc variant A3A-184AY (HEK) (K334N/P352S/A378V/V397M/N434Y), produced in HEK293 cells (other)
chain: B1 chain
notes: also called Fc A3A 184AY (HEK); rFc A3A-184AY
As to B4, the “IC50 (read off the curve)” value in assay [9] is roughly 200 nM. For the same molecule, the dissociation constant (Kd) in assay [10] came to 132 nM; in [11] it was 313 nM; in [12], 7.8 nM.

B5: A3A-184EY_CHO (Y296W/K334N/P352S/A378V/V397M/N434Y), Fc variant produced in CHO cells (other)
chain: B1 chain with Y76W
notes: probably a misprint; also called Fc A3A-184EY CHO
With B5, the “Inhibition of the secretion … (IC 25%, nM)” value in assay [1] is 442 nM. For the same molecule, in assay [1], the “Inhibition of the secretion … (IC 50%, nM)” value was 600 nM. The IC50 with CD32b came to 55 nM; in assay [3] it was 147 nM; in [4] it was 132 nM; in assay [5], 70 nM; in assay [7], 15 nM. Further, the Kd in [13] was 59.3 nM.

(Values after patent publication US20210214434A1 (LABORATOIRE FRAN AIS DU FRACTIONNEMENT ET DES …, published 2021).)
